{"source": "the nanobody polyreactivity screen of Harvey et al. (2022)"}
{"assay": "yeast display, Sf9 membrane polyspecificity reagent, FACS + sequencing; frameworks hold sequencing errors", "summary_of_the_method": "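Nanobodies came from a synthetic yeast display library in Saccharomyces cerevisiae BJ5465, induced with galactose for 36–48 hours and stained for 1 hour at 4 °C with 10% biotinylated, detergent-solubilized Sf9 membrane reagent. Cells were enriched on streptavidin microbeads and then FACS-sorted, with low and high (top ~1%) gates set on anti-HA fluorescence for expression and streptavidin fluorescence for reagent binding. Each polyreactivity label reflects the gate a clone came from. Genes were amplified by colony PCR, sequenced by MiSeq 2 × 250 and filtered by CDR length.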"}
{"sequence": "QVQLVEKRGGLVQAGGILRLSCAASGCILVGYAMGWSRQAPGKERELVAAINYSGGSTNYADSVKGRFTISLDNAKNTVYLQMISLKPEDTAVYYCAARSTARYGYWGQGTQVTVSS", "polyreactivity (PSR sort gate)": "low polyreactivity"}
{"sequence": "QVQLVELGGGLVQAGGSLRLSCAASGGTFPRYAMGWYRQAPGKERELVAAITSRGDRTYYADSVKGRFTISRDNAKNTVYLQMNSLKPEDTAVYYCAARLYYSSYGRVKMDYWGQGTQVTVSS", "polyreactivity (PSR sort gate)": "high polyreactivity"}
{"sequence": "QVQLVESAAGLVQAGGSLRLSCAASGFIFQYYAMGWYRQAPGKERELVAAINRGGGTHYADSVKGRFTISRDNAKNTVYLQMNSLKREDTAVYYCNKVYYWPGSRPSRYEYWGQGTQVTVSS", "polyreactivity (PSR sort gate)": "low polyreactivity"}
{"sequence": "QVQLVESAAGLVQAGGSLRLSCDASGSIFYSYAMGWYRQAPGKERELVAAITDSGDSTYYADCVKGRFTISRDNAKNTVYLQMNSLKPEDTAVYYCAAGFYPYYYWGQGTQVTVSS", "polyreactivity (PSR sort gate)": "low polyreactivity"}
{"sequence": "QVQLVESAARLVQAGASLPLSCPASGRIFYTNAMGCYRQAPGKERELVAVMSWGGDTTYYADSVKGRFTISRDNATNTVYLQMNSLKPEDSAVYYCNAYSGPTYEIYDSWGLGTQVTVSS", "polyreactivity (PSR sort gate)": "low polyreactivity"}
{"sequence": "QVQLVESAGCLVQAAASLRLSCSASGRTFYNYAMGWYRQAPGKEWELVASIRKNGGSTYYADSVKGRFTISRDNAKNTVYFQMNRLKPEDTAVYYCAAGRTVVTGSYYWGQGTQVTVSS", "polyreactivity (PSR sort gate)": "high polyreactivity"}
{"sequence": "QVQLVESAGCLVQAGASLRLSCAASGRIISRNAMGWYRQAPGKERELVAAITWRGGSTYYADSVKGRFTISRDNAKNTVYLQMNSLKPEDTAVYYCNRDYRQYGYAYSGRYYWGQGTQVTVSS", "polyreactivity (PSR sort gate)": "high polyreactivity"}
{"sequence": "QVQLVESAGCLVQAGGSLRLSCAASGSTIYRYAMGWYRQAPGKERELVAAITRTGGSTYADSVKGRFTISRDNAKNSVFLQMNSLKPEDTAVFYCAVQRYYVSSISPFYYWGQGTQVTVSS", "polyreactivity (PSR sort gate)": "low polyreactivity"}
{"sequence": "QVQLVESAGGFVQAGGSLRLSCAASGRIYQQNGLRWYRQAPGKERELVAGINSGVGTNYADSVKGRFTISRDNAKNTVYLQMNSLKPEDTAVFYCAKSQPSYSGDRDYWGQGTQVTVSS", "polyreactivity (PSR sort gate)": "low polyreactivity"}
{"sequence": "QVQLVESAGGFVQAGGSLRLSCAASGSIFTINAMGWYTQAPGKERELVAGIRWRGGSTYYADSVKGRVTISRDNAKNTVYFQMNSLKPEDTAVYYCNTRCLIRKFDYWGQGTQVTVSS", "polyreactivity (PSR sort gate)": "high polyreactivity"}
{"sequence": "QVQLVESAGGIVQAGGSLRLSCAASGFTFSRYAKGWNRPEPGKEREWVAAMTSSGGSTYYADSVKGRFTISRDNAKNTVYLQMNSLKPEDTAVYYCNARASGRTYRVDYWGQGTQVTVSS", "polyreactivity (PSR sort gate)": "high polyreactivity"}
{"sequence": "QVQLVESAGGLDQARGSLRLSCAASGFTFIRYAMGWYRQAPGKESELVATITRSGGSTYYADSVKGRFTISRDNAKNTVYLQMNSLKPEDTAVYYCAKRGTLGSYYYWGQGTQVTVSS", "polyreactivity (PSR sort gate)": "high polyreactivity"}
{"sequence": "QVQLVESAGGLLQAGGTLRLICAASGRIFTNYAMGWYRQAPGKERELVAAINWSGSRTFYADSVMGRFTISRDNAKYTVYLQLNSLKPEDTAVYSCAADALRKPKIALYDYWGQGTQVTVSS", "polyreactivity (PSR sort gate)": "high polyreactivity"}
{"sequence": "QVQLVESAGGLVHAGGSLRLSCAASGFIFWYYAMGWDRQSPGKERELVASISRGGDSTYYADSVKGRFTISRDNAKNTVYVQMNSLKPVDTAVYYCNARGRYRKSERRAFDYWGQGTQVTVSS", "polyreactivity (PSR sort gate)": "high polyreactivity"}
{"sequence": "QVQLVESAGGLVHAGGSLRLSCAASGFNFGFNAMGWDRQAPGKERELVAVISARGGRTYYADSVKGRFTISRDNAKNSVYLQMNSLKPEDSAVYYSAADDFFRYFFTHWVGDDYWGQGTQVSVSS", "polyreactivity (PSR sort gate)": "low polyreactivity"}
{"sequence": "QVQLVESAGGLVHAGGSLRLSCADSGSTIGDNAMGWYRQAPGKEREFVASISWSGASTYYADSVKGRFTISRDNAKNTVYLQMNSLKPEDTAVYFCAVYYSYYSHLYHLLFYYWGQATQVTVSS", "polyreactivity (PSR sort gate)": "low polyreactivity"}
{"sequence": "QVQLVESAGGLVHAGGSLSLSCAASAILGNNAMGWYRQAPRKQRELVAAISARGGRTYYADSVKGRFTISRDNAKNTVYLQMNSLKPEDTAVYYCATLETSGVNYWGQGTQVTVSS", "polyreactivity (PSR sort gate)": "high polyreactivity"}
{"sequence": "QVQLVESAGGLVQAGASLRLSCAASGRIFVRNAMGWYRQAPGKEREMVADITNGGSTNYADSVKGRFTISRDNAKNTVYLQKNRLNPEDTAVYYCNADGFVYDLRARPGWVDYWGQGTQVTVSS", "polyreactivity (PSR sort gate)": "low polyreactivity"}
{"sequence": "QVQLVESAGGLVQAGGILRLSCAASGSIFVGYDMGWSRQAPGKERELVAAITSSGGGSTYYADSVKGRFTISRDNAKNTVYLQMNSLKPEDTAVYYCAARTSLWWFLKYDYWGQGTQVTVSS", "polyreactivity (PSR sort gate)": "low polyreactivity"}
{"sequence": "QVQLVESAGGLVQAGGRLRLSCAASGFTFVYYVMGWYRQAPGKERELVAAISNSGGSTYYADSVKGRFTISRDNAKNSVYLEMNSLKPEDTAVYYCAAPPGGGKYRGYYYWGQGTQVTVSS", "polyreactivity (PSR sort gate)": "high polyreactivity"}
{"sequence": "QVQLVESAGGLVQAGGRLRLSCAASGITISYYAMGWYRQAPGKERELVASISWRGGGTYYADSVKGRFTISRDNAKNTVYLQMNSVKPEDTAVYYCAADEKLYITRYDYWGQGTQVTVSS", "polyreactivity (PSR sort gate)": "low polyreactivity"}
{"sequence": "QVQLVESAGGLVQAGGRLRLSCAASGRTFTYYAMGWYRQAPGKERELVAAISFSGGRTYYADSVKGRFTISRDYAKNTVYLQMNSLKPEDTAVYYCAAENYYTRYRDRDYWGQGTQVTVSS", "polyreactivity (PSR sort gate)": "high polyreactivity"}
{"sequence": "QVQLVESAGGLVQAGGRLRVSCAASGFIFLYYPMGWYRKAPGKEREFVAAISWSDGNTYYADSVKGRFTISRDTAKNTDYLQMNSLKREDTAVYYCNARDADAWASGYDYWGQGTQLTVSS", "polyreactivity (PSR sort gate)": "low polyreactivity"}
{"sequence": "QVQLVESAGGLVQAGGSHRLSCAASASIFDGYAMGWYRQAPGKEREVVAAIRRSGVDTYYADSVKGRFTISRDNAKTTVYLQMNSLKPEDTAVDYCAADSYPSPNFEDNYWRQGTQVTVSS", "polyreactivity (PSR sort gate)": "low polyreactivity"}
{"sequence": "QVQLVESAGGLVQAGGSHRLSCAPSGRIFGGNAMGWYRRAPGKERELVAGISRRGGSTYYADSVKGRFTITRDNAKNTVHLQMNSLKPEDTAVYYCNAYYRYSVFAEKYDYWGEGTQVTVSS", "polyreactivity (PSR sort gate)": "high polyreactivity"}
{"sequence": "QVQLVESAGGLVQAGGSLRIRCAASVSTFGVYALGWYRQAPGKERELVAAISSSTGSTYYADSVKGRFTISRDNAKNTVYLQMNSLKPEDTGVYYCAAAGYGKVRGDYWGLGTQVTVSS", "polyreactivity (PSR sort gate)": "low polyreactivity"}
{"sequence": "QVQLVESAGGLVQAGGSLRISCAASGSIFYYYAMGWYRQAPGKERELLAAIDSGGSTYYADSVKGRFTISRDNAKNTVYLQMNSLKPEDTAVYYCAADTYWFVYYGYDYWGQGTQVTVSS", "polyreactivity (PSR sort gate)": "low polyreactivity"}
{"sequence": "QVQLVESAGGLVQAGGSLRLMCAASGNTLSWYALGWYRQAPGKERELVAVITSGGSTNYADSVKGRFTISRDYAKNTVYLQMNSLKPEDTAVYYCNRRPYGFDEFDYWGQGTQVTVSS", "polyreactivity (PSR sort gate)": "low polyreactivity"}
{"sequence": "QVQLVESAGGLVQAGGSLRLSCAASAFTFFDYVMGWYRQAPGKERELVAAISRNVGSTYYADSVKGRFTISRDNAKNTVYLQMNSLKPEDTAVYYCAGEPPPYEYDYWGQGTQVTVSS", "polyreactivity (PSR sort gate)": "high polyreactivity"}
{"sequence": "QVQLVESAGGLVQAGGSLRLSCAASAFTFRWYDMGWYRQAPGKERELVAAIDASDGSTYYSDSVKGSFTISRDNPKNTVYLPMNSLKPEDTAVYYCATRLRGGGKGYYYWGQGTQVTVSS", "polyreactivity (PSR sort gate)": "high polyreactivity"}
{"sequence": "QVQLVESAGGLVQAGGSLRLSCAASGFIFVRNAMGWYRPAPGKVRELVAAISRSGGRTYNADSVKGRFTISRDNAKNTVYLQMNSLKPEDTAVYYCAARSGYFRSRFDYWGQGTQVTVSS", "polyreactivity (PSR sort gate)": "high polyreactivity"}
{"sequence": "QVQLVESAGGLVQAGGSLRLSCAASGFTFKSNAMGWYRQAPGKEREMVAAIDSRGDRTYYADSVKGRFTISRDNAKNTVYLQMNSLKPEDTAVYYCATKWRTYWSSGEYWGQGTQVTVSS", "polyreactivity (PSR sort gate)": "high polyreactivity"}
{"sequence": "QVQLVESAGGLVQAGGSLRLSCAASGFTFLYYAMGWYRKAPGKEREFVAAISYTGGSTYYADSVKGRFTISRDNAKNTVYLQMNSLKPEDTAVYYCAVDGYYWFGSIFDYWGQGTQVTVSS", "polyreactivity (PSR sort gate)": "low polyreactivity"}
{"sequence": "QVQLVESAGGLVQAGGSLRLSCAASGITFAWYAMGWYRQAPGKERELVAAITRGGGSTYYADSVKGRFTISRDNAKNTVYLQMNSLKPEATAVYYCAARPYSYPYGYWGQGTQVTVSS", "polyreactivity (PSR sort gate)": "low polyreactivity"}
{"sequence": "QVQLVESAGGLVQAGGSLRLSCAASGITFKYNAMGWYRQAPGKERELVAAISKGGGSTYYADSVKGRFTISRDNAKNTVYLQMNSLKPEDTAVYYCAARRWYRFDYWGQGTQVTVSS", "polyreactivity (PSR sort gate)": "high polyreactivity"}
{"sequence": "QVQLVESAGGLVQAGGSLRLSCAASGITFSYYTMGWYRQAPGKEREFVATIRRGGSTNYADSVKGRFTISRDNAKNTVYLQMNSLKPEDTAVYYCAADLRRNGWGFDYWGQGTQVTVSS", "polyreactivity (PSR sort gate)": "high polyreactivity"}
{"sequence": "QVQLVESAGGLVQAGGSLRLSCAASGITFYEYVMGWYRQAPGKERELVASIDWSGGGTYYADSVKGRFTISRDNAKNTVYLQMNSLKPEDTAVYYCNADYFDYSRPRYDYWGQGTQVTVSS", "polyreactivity (PSR sort gate)": "low polyreactivity"}
{"sequence": "QVQLVESAGGLVQAGGSLRLSCAASGITHHHNAIGWSRQAPRKERELVAAITSNGGSTYYAVSVKGRFTISRDHAKNSVYLQINSLKPEDTAVYYCARDSKRLARYYYWGQGTQVTVSS", "polyreactivity (PSR sort gate)": "low polyreactivity"}
{"sequence": "QVQLVESAGGLVQAGGSLRLSCAASGLTFTGNAIGWYRQAPGKERQCVAAIRWSAGSTYYADSVKGRVTISRDNAKNTVYLQMNSLKPEDTAVYYCNAALNVSGHYPNDYWGQGTQVTVSS", "polyreactivity (PSR sort gate)": "low polyreactivity"}
{"sequence": "QVQLVESAGGLVQAGGSLRLSCAASGMILWRYSMGWYRKAPGKEMEFVAAISYRAGSTYYADSVKGRFTISRDNAKNTVYLQMNSLKPEDTAVYYCAAGLKRFGSYPWLKSGMGYWGQGTQVTVSS", "polyreactivity (PSR sort gate)": "high polyreactivity"}
{"sequence": "QVQLVESAGGLVQAGGSLRLSCAASGNTFANYAMGWDRQAPGKERELVAAITRGGSTFYADSVKGRFTISRDNAKNTVYLQMNSLKPEDSAVYYCAKGYGTNTRYYHRYRYDYWGQGTQVTVSS", "polyreactivity (PSR sort gate)": "high polyreactivity"}
{"sequence": "QVQLVESAGGLVQAGGSLRLSCAASGNTFWFYGMGWYRPAPGKVRELVAAITSGGSTDYPDSVKGRCTISRDNAKNTVYLQMNSLKPEDTALYYCAAEPVAYYGSSYGYWGQGTQVTVSS", "polyreactivity (PSR sort gate)": "low polyreactivity"}
{"sequence": "QVQLVESAGGLVQAGGSLRLSCAASGRIFKFYTMGWYRQAPGKERELVAAISSSDGSTHYADSVKGRFTISRDNAKNTVYLQMNSLKPEDTAVYYCAAQGGRNRGYRYYWGQGTQVTVSS", "polyreactivity (PSR sort gate)": "high polyreactivity"}
